From article PMC4671291 (The Biochemical journal, 2011)

Target: the molecule itself
Test: SEC

B1: Saccharomyces cerevisiae dUTP pyrophosphatase DUT1 (enzyme, S. cerevisiae)
chain: MTATSDKVLKIQLRSASATVPTKGSATAAGYDIYASQDITIPAMGQGMVSTDISFTVPVGTYGRIAPRSGLAVKNGIQTGAGVVDRDYTGEVKVVLFNHSQRDFAIKKGDRVAQLILEKIVDDAQIVVVDSLEESARGAGGFGSTGN
With B1 the “stoichiometry N” value was 3.
